Reference: US20090304651A1 (published 2009)

Molecular target: T1, recombinant human IGF-II (Insulin-like Growth Factor II) (human, UniProt P01344 25-91, biotinylated (Biotinyl-IGF-II, GroPep) where immobilised in SPR, site not stated; not biotinylated in ITC and as SPR analyte)
T1 construct: also called IGF2; IGF-2
Assay: ITC
Protocol: Calorimetric measurements were performed using a VP-ITC microcalorimeter (MicroCal). All solutions were thoroughly degassed before use by stirring under vacuum. […] The sample cell contained either wild type domain 11 (7 uM) or the E1544A mutant (8 μM), also in HBS-E buffer. To correct for the heat effects of dilution and mixing, reaction heats obtained from a control experiment, in which IGF2 was injected into HBS-E, were subtracted. Calorimetric data were analysed using MicroCal ORIGIN software (version 5.0) supplied with the instrument. Thermodynamic parameters were derived by fitting the binding isotherms to a single-site binding model. Values for dissociation affinity constants (KD) were determined from duplicate experiments.
In order to validate the SPR sensorgram data, ITC was used to assess the binding affinity between domain 11 and IGF-II. The affinity of the E1544A mutant was also assessed by ITC in order to confirm whether use of a second technique agreed as to the apparent increase in affinity (FIG. 6 and Table 6). Titrations were performed using 17×15 μl injections of 40 μM IGF-II (after an initial 7.51 injection) into the reaction cell containing wild type domain 11 or the E1544A mutant. […] The two fold differences may be simply accounted for by the fidelity of both techniques.

T1 sequence (P01344 25-91 limits assumed): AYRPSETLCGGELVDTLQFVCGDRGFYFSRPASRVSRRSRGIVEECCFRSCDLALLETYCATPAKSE

relative affinity increase over wild type: ~2 fold
B1: IGF2R domain 11 E1544A (amino acids 1511-1650, C-terminal His6 tag, from Pichia pastoris) (receptor)
chain: NEHDDCQVTNPSTGHLFDLSSLSGRAGFTAAYSAKGLVYMSICGENENCPPGVGACFGQTRISVGKANKRLRYVDQVLQLVYKDGSPCPSKSGLSYKSVISFVCRPEAGPTNRPMLISLDKQTCTLFFSWHTPLACEQATHHHHHH
